Key:
[1] = PAF-AH activity of E. coli constructs with extended amino termini (lysate, media); type: biochemical; conditions: trp promoter
Description: PAF-AH activity in transfectant supernatants was determined by the method of Stafforini et al. (1990), supra, with the following modifications. Briefly, PAF-AH activity was determined by measuring the hydrolysis of ^3H-acetate from [acetyl-^3H) PAF (New England Nuclear, Boston, Mass.). The aqueous free ^3H-acetate was separated from labeled substrate by reversed-phase column chromatography over octadecylsilica gel cartridges (Baker Research Products, Phillipsburg, Pa.). Assays were carried out using 10 μl transfectant supernatant in 0.1M Hepes buffer, pH 7.2, in a reaction volume of 50 μl. A total of 50 pmoles of substrate were used per reaction with a ratio of 1:5 labeled: cold PAF. Reactions were incubated for 30 minutes at 37° C. and stopped by the addition of 40 μl of 10M acetic acid. The solution was then washed through the octadecylsilica gel cartridges which were then rinsed with 0.1M sodium acetate. The aqueous eluate from each sample was collected and counted in a liquid scintillation counter for one minute. Enzyme activity was expressed in counts per minute.
and encompassed the termination codon of sAH 406-3 and contained an EcoRV cloning site. PCR reactions were performed essentially as described in Example 3. The resulting PCR product was digested with XbaI and EcoRV and subcloned into a pBR322 vector containing the Trp promoter [deBoer et al., PNAS. 80:21-25 (1983)] immediately upstream of the cloning site. E. coli strain XL-1 Blue was transformed with the expression construct and cultured in L broth containing 100 μg/ml of carbenicillin. Transformants from overnight cultures were pelleted and resuspended in lysis buffer containing 50 mM Tris-HCl pH 7.5, 50 mM NaCl, 10 mM CHAPS, 1 mM EDTA, 100 μg/ml lysozyme, and 0.05 trypsin-inhibiting units (TIU)/ml Aprotinin. Following a 1 hour incubation on ice and sonication for 2 minutes, the lysates were assayed for PAF-AH activity by the method described in Example 4. E. coli transformed with the expression construct (designated trp AH) generated a product with PAF-AH activity.
Several E. coli expression constructs were also evaluated which produce PAF-AH with extended amino termini. The N-terminus of natural plasma PAF-AH was identified as Ile42 by amino acid sequencing (Example 2). […] Acids Res., 14:4683-4690 (1986)]. Presumably a more classical signal sequence (M1-A17) is recognized by the cellular secretion system, followed by endoproteolytic cleavage. The entire coding sequence for PAF-AH beginning at the initiating methionine (nucleotides 162 to 1487 of SEQ ID NO: 7) was engineered for expression in E. coli using the trp promoter. […] Another expression construct, beginning at Val18 (nucleotides 213 to-1487 of SEQ ID NO: 7), produced active PAF-AH at about one third the level of the original construct.

[2] = tested on: OVA-induced eosinophil infiltration of the trachea; assay: Antigen-induced eosinophil recruitment to trachea; type: in vivo, mouse; conditions: 750 units IV before and 24 h after aerosolized OVA (group 4)
Description: Recombinant PAF-AH enzyme of the invention was also tested for efficacy in a model of antigen-induced eosinophil recruitment. The accumulation of eosinophils in the airway is a characteristic feature of late phase immune responses which occur in asthma, rhinitis and eczema. BALB/c mice (Charles River) were sensitized by two intraperitoneal injections consisting of 1 μg of ovalbumin (OVA) in 4 mg of aluminum hydroxide (Imject alum, Pierce Laboratories, Rockford. Ill.) given at a 2 week interval. Fourteen days following the second immunization, the sensitized mice were challenged with either aerosolized OVA or saline as a control.
Prior to challenge mice were randomly placed into four groups, with four mice/group. […] Mice in groups 2 and 4 were pretreated with 750 units of PAF-AH (activity of 5,500 units/ml given in 140 μl of PAF-AH buffer). Thirty minutes following administration of PAF-AH or buffer, mice in groups 1 and 2 were exposed to aerosolized PBS as described below, while mice in groups 3 and 4 were exposed to aerosolized OVA. Twenty-four hours later mice were treated a second time with either 140 μl of buffer (groups 1 and 3) or 750 units of PAF-AH in 140 μl of buffer (groups 2 and 4) given by intravenous injection.
Eosinophil infiltration of the trachea was induced in the sensitized mice by exposing the animals to aerosolized OVA. […]

B1: PAF-AH: Recombinant human plasma platelet-activating factor acetylhydrolase (beginning at Ile42) expressed in E. coli from construct pUC trp AH (protein)
chain: IQVLMAAASFGQTKIPRGNGPYSVGCTDLMFDHTNKGTFLRLYYPSQDNDRLDTLWIPNKEYFWGLSKFLGTHWLMGNILRLLFGSMTTPANWNSPLRPGEKYPLVVFSHGLGAFRTLYSAIGIDLASHGFIVAAVEHRDRSASATYYFKDQSAAEIGDKSWLYLRTLKQEEETHIRNEQVRQRAKECSQALSLILDIDHGKPVKNALDLKFDMEQLKDSIDREKIAVIGHSFGGATVIQTLSEDQRFRCGIALDAWMFPLGDEVYSRIPQPLFFINSEYFQYPANIIKMKKCYSPDKERKMITIRGSVHQNFADFTFATGKIIGHMLKLKGDIDSNVAIDLSNKASLAFLQKHLGLHKDFDQWDCLIEGDDENLIPGTNINTTNQHIMLQNSSGIEKYN
PAF-AH activity, Lysate ([1]; E. coli lysate): 177.7 U/ml/OD600
PAF-AH activity, Media ([1]; E. coli media): 0.030 U/ml/OD600
Eosinophils in the submucosal tissue of the trachea [2]: very few eosinophils in the submucosal tissue
